# Measured values reported in patent US20230129258A1 (Bicycle, published 2023).
# Several values for one entry are separate records, joined by “and”; a condition that tells them apart may be missing. Equal values may be shown once. Starred links: 1 amine or outer side, 2 acyl side, 3 side chain; linkers in the order of their positions; H or OH if unused. Positions of bridges follow the written chain, without caps; N, C: chain ends. Non-standard residues stand in square brackets, D forms with d. Primed or numbered codes have the meaning given here. Chains are numbered I, II in the order given. No end group written: not given here. *: point of attachment. dLys(PYA)″ = D-lysine N6-(4-pentynoyl) (D-Lys(PYA)), C#CCCC(=O)NCCCC[C@@H](N[*:1])C(=O)[*:2]; TATA = O=C(CC[*:1])N1CN(C(=O)CC[*:2])CN(C(=O)CC[*:3])C1; γGlu = O=C(O)[C@H](CCC(=O)[*:2])N[*:1]; 1Nal = N[C@@H](Cc1cccc2ccccc12)C(=O)O; d1Nal = N[C@H](Cc1cccc2ccccc12)C(=O)O; Palmitoyl = CCCCCCCCCCCCCCCC(=O)*; Hyp = O=C(O)[C@@H]1C[C@@H](O)CN1; hArg = N=C(N)NCCCC[C@H](N)C(=O)O; tBuAla = CC(C)(C)C[C@H](N)C(=O)O; dK(PYA) = not defined here; NMeA = CN[C@@H](C)C(=O)O; Nle = CCCC[C@H](N)C(=O)O; Pent4ynoyl = C#CCCC(=O)*; dNMeA = CN[C@H](C)C(=O)O
# T1: OX40 on Jurkat reporter cells (Promega CS197704) (UniProt P43489 29-277)
# T1 sequence (looked up): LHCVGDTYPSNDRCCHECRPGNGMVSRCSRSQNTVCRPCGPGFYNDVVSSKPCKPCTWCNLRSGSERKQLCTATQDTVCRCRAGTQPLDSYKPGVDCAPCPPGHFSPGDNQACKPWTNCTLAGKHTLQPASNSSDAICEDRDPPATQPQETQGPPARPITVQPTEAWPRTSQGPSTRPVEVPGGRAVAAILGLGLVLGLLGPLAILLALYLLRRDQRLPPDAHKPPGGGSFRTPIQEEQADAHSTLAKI
# How the values were obtained:
# [1] = target: T2, CD137 on Jurkat reporter cells (Promega kit CS196005) (UniProt Q07011 24-255, limits assumed); assay: cell-based or functional assay
# [2] = target: T2, CD137 on Jurkat reporter cells (Promega …); assay: cell-based or functional assay; remark: listed apart in the source
# [3] = target: T2, CD137 on Jurkat reporter cells (Promega …); assay: cell-based or functional assay; remark: listed apart in the source
# [4] = target: T2, CD137 on Jurkat reporter cells (Promega …); assay: cell-based or functional assay; remark: listed apart in the source
# [5] = target: T3, human CD137 extracellular domain (human, UniProt Q07011 24-186, biotinylated where captured on the streptavidin chip); assay: SPR (Biacore), biotinylated human CD137 captured on a streptavidin chip, BCY13272 as analyte, 1:1 fit; avidity from two CD137 bicycles
# T3 construct: extracellular domain; Section 17 says only 'Recombinant human CD137 (R&D systems)'; also called CD137 (human); Recombinant human CD137 (R&D systems)
# [6] = target: T3, human CD137 extracellular domain; assay: SPR (Biacore), biotinylated human CD137 captured on a streptavidin chip, BCY13272 as analyte, 1:1 fit; the text says the reported KD may be an overestimation (avidity)
# human EphA2 protein [7] = target: T4, human EphA2 protein (human, UniProt P29317 25-534, limits assumed, biotinylated); assay: SPR (Biacore), biotinylated human EphA2 captured on a streptavidin chip, BCY13272 as analyte, 1:1 fit
# T4 construct: Construct not described; also called EphA2 (human)
# human EphA2 protein [8] = target: T4, human EphA2 protein; assay: SPR (Biacore T200), biotinylated EphA2 captured on streptavidin chip, 25° C.
# [9] = target: T3, human CD137 extracellular domain; assay: SPR (Biacore), biotinylated human CD137 captured on a streptavidin chip, BCY13272 as analyte, 1:1 fit; the text calls the off rate very slow (avidity from two CD137 bicycles)
# [10] = target: T1, OX40 on Jurkat reporter cells (Promega …); assay: cell-based or functional assay
# T3 sequence (Q07011 24-186): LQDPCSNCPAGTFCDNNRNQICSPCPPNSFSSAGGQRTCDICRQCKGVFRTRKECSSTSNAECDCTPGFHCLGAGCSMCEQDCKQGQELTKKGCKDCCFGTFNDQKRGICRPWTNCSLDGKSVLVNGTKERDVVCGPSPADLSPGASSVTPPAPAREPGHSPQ
# T4 sequence (P29317 25-534 limits assumed): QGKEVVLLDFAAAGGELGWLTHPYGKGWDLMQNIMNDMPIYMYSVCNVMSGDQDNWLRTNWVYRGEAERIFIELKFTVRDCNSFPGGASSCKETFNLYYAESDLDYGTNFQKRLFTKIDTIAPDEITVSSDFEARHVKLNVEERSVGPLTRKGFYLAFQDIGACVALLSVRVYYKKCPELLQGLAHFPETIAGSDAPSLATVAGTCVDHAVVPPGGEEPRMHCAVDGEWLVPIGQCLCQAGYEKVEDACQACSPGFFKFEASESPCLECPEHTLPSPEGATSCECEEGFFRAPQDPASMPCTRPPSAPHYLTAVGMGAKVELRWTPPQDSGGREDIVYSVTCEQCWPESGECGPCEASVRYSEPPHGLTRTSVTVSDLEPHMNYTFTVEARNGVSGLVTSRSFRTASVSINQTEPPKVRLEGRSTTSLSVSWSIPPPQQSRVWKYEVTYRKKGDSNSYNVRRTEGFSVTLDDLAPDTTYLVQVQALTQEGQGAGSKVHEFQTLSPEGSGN
# T2 sequence (Q07011 24-255 limits assumed): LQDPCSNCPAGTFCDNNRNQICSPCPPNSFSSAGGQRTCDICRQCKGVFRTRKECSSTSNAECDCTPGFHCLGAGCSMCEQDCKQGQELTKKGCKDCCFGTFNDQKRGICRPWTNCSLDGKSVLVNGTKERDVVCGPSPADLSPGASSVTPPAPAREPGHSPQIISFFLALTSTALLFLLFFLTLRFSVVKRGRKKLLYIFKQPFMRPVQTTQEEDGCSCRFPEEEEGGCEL
binder,measurement,setting,value
"BCY12487 (linker I:1-I:5-I:15, II:1-II:8-II:15 via TATA; not fully specified (some residues, bridges); also: chain 1 N-terminus and chain 2 dLys(PYA)4 joined by N-(acid-PEG3)-N-bis(PEG3-azide) linker) peptide 1: CP[1Nal]DCM[hArg]DWSTP[Hyp]WC peptide 2: Ac-C[tBuAla]PE[dK](Pent4ynoyl)PYCFAEPY[Nle]C","EC50 (nM), HT1376 co-culture",[1],13 nM
same,"Emax (fold induction over background), HT1376",[1],12 fold over background
"BCY13583 (linker I:1-I:5-I:15 via TATA; linker II:1-II:8-II:15, III:1-III:8-III:15 via TATA (inferred); reading uncertain; also: Alexa Fluor 488 label, site not given here, linker at chain B 5 at chain C 5 to a chain's N-terminus via N-(acid-PEG3)-N-bis(PEG3-azide)) peptide 1: CP[1Nal][dD]CM[hArg]DWSTP[Hyp]WC peptide 2: Ac-C[tBuAla]PE[dK(PYA)]PYCFADPY[Nle]CA peptide 3: Ac-C[tBuAla]PE[dK(PYA)]PYCFADPY[Nle]CK","Arithmetic mean EC50 (nM), HT1376 co-culture",[2],1.7 nM
same,"Arithmetic mean EC50 (nM), MDA-MB-468 co-culture",[2],0.84 nM
same,"EC50 (nM), HT1376 co-culture",[1],1.7 nM
same,"Emax (fold induction over background), HT1376",[1],63 fold over background
BCY11780 (BCY8928: Ac-(SEQ ID NO: 11)-A; TATA; linker at dLys4; BCY10861: Ac-SDK-(SEQ ID NO: 53)-PSH; TATA; linker at Lys(PYA)9) peptide 1: SDKCSAGWLTMCQXLHLCPSH peptide 2: CXPEXPYCFADPYXCA,"EC50 (nM), RKO co-culture",[3],1.9 nM
same,"Fold Induction over background, RKO co-culture",[3],13 fold
BCY12490 (BCY8928: Ac-(SEQ ID NO: 11)-A; TATA; linker at dLys(PYA)4; BCY12024: Ac-(SEQ ID NO: 14); TATA; linker at dLys3) peptide 1: CPXKCMXDWSTPXWC peptide 2: CXPEXPYCFADPYXCA,"EC50 (nM), HT1376 co-culture",[1],0.23 nM
same,"Emax (fold induction over background), HT1376",[1],70 fold over background
"BCY12761 (linker I:1-I:5-I:15, II:1-II:8-II:15 via TATA; not fully specified (some residues, bridges); also: chain 1 N-terminus and chain 2 dLys(PYA)4 joined by N-(acid-PEG3)-N-bis(PEG3-azide) linker) peptide 1: CP[1Nal]DCM[hArg]DWSTP[Hyp]WC peptide 2: Ac-C[tBuAla]PE[dK](Pent4ynoyl)PYCFAD[dNMeA]Y[Nle]C","EC50 (nM), HT1376 co-culture",[1],0.37 nM
same,"Emax (fold induction over background), HT1376",[1],76 fold over background
"heterotandem bicyclic peptide complex BCY13272 (linker I:4-I:11-I:18, II:1-II:8-II:15 via TATA; not fully specified (bridges); also: 1:2 complex: BCY13118 + 2x BCY8928, also called EphA2/CD137 heterotandem) peptide 1: A[hArg]DC[Hyp]LVNPLCLEP[d1Nal]WTC peptide 2: Ac-C[tBuAla]PE[dLys(PYA)″]PYCFADPY[Nle]CA","EC50 (nM), A549 co-culture",[4],0.147 nM and 0.107 nM and 0.132 nM
same,"Geo mean EC50/cell line, A549",[4],0.127 nM
same,"Geo mean EC50/cell line, HT-29",[4],0.279 nM
same,"Geo mean EC50/cell line, PC-3",[4],0.117 nM
same,kon,[5],302000 M⁻¹ s⁻¹
same,Kd,[6],≤ 0.0331 nM
same,koff,human EphA2 protein [7],0.00102 s⁻¹
same,kon,human EphA2 protein [7],502000 M⁻¹ s⁻¹
same,Kd,human EphA2 protein [8],2 nM
same,koff,[9],≤ 1e-05 s⁻¹
"BCY12589 (linker I:1-I:5-I:15, II:1-II:8-II:15 via TATA; not fully specified; also: chain 2 present twice on linker, Nectin-4:CD137 1:2, linker at B5 via N-(acid-PEG3)-N-bis(PEG3-azide), other end not in the chain) peptide 1: {Palmitoyl-γGlu-γGlu}-CP[1Nal]KCM[hArg]DWSTP[Hyp]WC peptide 2: Ac-C[tBuAla]PE[dK](Pent4ynoyl)PYCFADPY[Nle]CA","EC50 (nM), HT1376 co-culture",[1],0.44 nM
same,"Emax (fold induction over background), HT1376",[1],79 fold over background
"BCY12760 (linker I:1-I:5-I:15, II:1-II:8-II:15 via TATA; not fully specified (some residues, bridges); also: chain 1 N-terminus and chain 2 dLys(PYA)4 joined by N-(acid-PEG3)-N-bis(PEG3-azide) linker) peptide 1: CP[1Nal]DCM[hArg]DWSTP[Hyp]WC peptide 2: Ac-C[tBuAla]PE[dK](Pent4ynoyl)PYCFAD[NMeA]Y[Nle]C","EC50 (nM), HT1376 co-culture",[1],1.8 nM
same,"Emax (fold induction over background), HT1376",[1],76 fold over background
BCY12967 (linker I:1-I:5-I:15 via TATA; linker II:2-II:7-II:14 via TATA (inferred); not fully specified (some residues); also: chain 1 N-terminus and chain 2 C-terminal Lys(PYA) joined by N-(acid-PEG3)-N-bis(PEG3-azide) linker) peptide 1: CP[1Nal]DCM[hArg]DWSTP[Hyp]WC peptide 2: ACLYSPCWHPLNDCAK(Pent4ynoyl),"EC50 (nM), Promega OX40 cell-activity assay in co-culture with tumor cells",[10],0.83 nM
